Consider ten molecules from patent publication US20160108098A1 (GlaxoSmithKline, published 2016).

Where no end group is shown, it is not given here.

To fix the notation:
T1: human Neuropeptide Y receptor type 2 (human, UniProt P49146 1-381)
T1 sequence (looked up): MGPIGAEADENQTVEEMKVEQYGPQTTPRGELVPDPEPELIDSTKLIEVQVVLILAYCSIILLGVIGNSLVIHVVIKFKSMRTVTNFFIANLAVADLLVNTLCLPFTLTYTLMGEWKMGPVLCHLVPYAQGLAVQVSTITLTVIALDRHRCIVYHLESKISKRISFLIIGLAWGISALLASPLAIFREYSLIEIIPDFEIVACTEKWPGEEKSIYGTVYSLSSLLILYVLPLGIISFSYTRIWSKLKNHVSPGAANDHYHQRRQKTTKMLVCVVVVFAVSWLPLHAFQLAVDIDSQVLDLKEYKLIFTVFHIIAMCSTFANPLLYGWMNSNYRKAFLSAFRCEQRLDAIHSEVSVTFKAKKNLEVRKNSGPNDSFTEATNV

One experiment has as its target T1, human Neuropeptide Y receptor type 2. In words: cell-based or functional assay.
For PKPEAPGKDASPEELNRYYASLRKYLNWLTRQRY-NH2 [Example 2], the “hNPY Y2 pEC50” value was found to be 9.8 pEC50.
Same read-out and setting: the result for PKPEHPGKDASPEEWNRYYASLRKYLNWVTRQRY-NH2 [Example 25] reads 9.6 pEC50; that for PKPEAPGKDASPEELNRYYASLRKYLNWVTRQRY-NH2 [Example 31], 9.8 pEC50.

Another experiment has the same target. In words: cell-based or functional assay. This is another data set of the same source.
On to PKPEAPGCDASPEEWNRYYASLRKYLNWVTRQNY-NH2 [Peptide 1], for which the “hNPY Y2 pEC50” value was 7.9 pEC50.
Consider PKPEAPGEDASPKEWNRYYASLRKYLNWVTRQRY-NH2 [Peptide 3], for which the “hNPY Y2 pEC50” value worked out at 9.2 pEC50.
Take PKPEAPGCDASPEEWNRYYASLRKYLNWVTRQHY-NH2 [Peptide 14]: the “hNPY Y2 pEC50” value came out at 8.2 pEC50.
In the case of IKPEAPLSKQLEEEAVRYYASLRHYLNLVTRQRY-NH2 [Peptide 2], the “hNPY Y2 pEC50” value was 8.6 pEC50.
Turning to PKPEAPLSKQLEEEAVRYYASLRHYLNLVTRQRY-NH2 [Peptide 21], the “hNPY Y2 pEC50” value came to 8.7 pEC50.
Turning to PKPVAPGCDASPAELNRQYSDLRNYWNLVTRQRY-NH2 [Peptide 15], the “hNPY Y2 pEC50” value was determined as 8.9 pEC50.
Turning to IKPPYPGCDASPEEQNKYYASLRAYWNLVTRQRY-NH2 [Peptide 8], the “hNPY Y2 pEC50” value was 9.3 pEC50.
